From patent publication US20080213277A1 (Amgen, published 2008)
Residue numbers refer to the chain shown, from its start. Bridge positions count the residues as written; N and C are the ends. Ends that are not written are not given here.

B1: human hepcidin (SEQ ID NO: 9), mature, correctly folded (peptide)
peptide: DTHFPICIFCCGCCHRSKCGMCCKT
modifications: disulfide 10-13, 11-19, 14-22, 7-23; not fully specified
notes: 25-residue mature peptide with four disulfides (C7-C23, C10-C13, C11-C19, C14-C22); Recombinant (E. coli or CHO) or synthetic, by assay; also called rhHepc; shHepc
B2: rat anti-human hepcidin monoclonal antibody R9 (antibody, V domains shown)
VH: QVTLKESGPGILQPSQTLSLTCSFSGFSLSTSGICVSWIRQPSGKGLEWLATICWEDSKGYNPSLKNRLTISKDTSNNQAFLKITSVDTADTAIYYCARPLNYGGYSELELDYWGQGVMVTVSS
VL: DIQMTQSPSLLSASVGDRVTLSCKASQNIYKYLNWYQQKLGEAPKLLIYYTNSLQTGIPSRFSGSGSGTDFTLTISSLQPEDVATYYCYQYNSGPTFGAGTKLELK
notes: Rat hybridoma monoclonal; also called mAb R9
B3: murine anti-human hepcidin monoclonal antibody 2.7 (antibody, V domains shown)
VH: QIQLVQSGPELKKPGETVKISCKASGYTFTTYGMSWVKQAPGKGLKWMGWINTYSGVPTYADDFKGRFAFSLETSASTAYLQINNLKNEDTATYFCGRDHYYGEVAYWGQGTLVTVSA
VL: DIVLTQSPASLAVSLGQRATISCRASESVDSYGNSFMHWYQQKPGQPPKLLIYRASNLESGIPARFSGSGSRTDFTLTINPVEADDVATYYCHQSNEEYTFGGGTKLEIK
notes: Mouse hybridoma monoclonal; Murine IgG1 was used as its isotypic control; also called Ab2.7; Ab 2.7
B4: murine anti-human hepcidin monoclonal antibody Ab43 (antibody, V domains shown)
VH: QIQLVQSGPELKKPGETVKISCKASGYTFTTYGMSWVKQAPGKGLKWMGWINTYSGVPTYADDFKGRFAFSLETSASTAYLQINNLKNEDTATYFCASLWYYGRAFDYWGQGTTLTVSS
VL: B3 VL with D1N, R54L, I62V, N80D, V87A, H93Q, S95N, E98D, Y99R
notes: Mouse hybridoma monoclonal; also called mAB 43
B5: murine anti-human hepcidin monoclonal antibody 2.41 (antibody, V domains shown)
VH: B3 VH with Y54S, K65M, G97A, H100R
VL: B3 VL with Y32F, Q42L, T89I, H93Q
notes: Mouse hybridoma monoclonal

Experiments:
[1] = molecular target: B3; assay: competitive binding assay: unlabeled human hepcidin against 0.25 nM biotinylated hepcidin for Ab2.7; standards in rabbit serum
Description: (§1) Hepcidin levels were determined using hepcidin standards of varying concentrations (from 1.4-300 ng/ml) spiked into buffer (5% BSA:I-block), rabbit serum, or pooled human serum. […] 25 μl/well of mixed solution was added to Black half area plates coated with 1-2 μg/mL G×M capture antibody. 25 μL/well of biotinylated hepcidin was added at 0.25 nM. The plate was covered with plate film sealer and incubated at room temperature (25° C.) on a plate shaker at around ≦200 RPM for around 60 minutes. The plate was washed and then 50 μL/well of Poly horseradish peroxidase amplification reagent at 1:2000 was added. The plate was allowed to sit for 30 minutes and was then washed with a plate washer using PBS or KPL buffer 6 times. The plate was patted dry and a luminescent substrate (Femto or Pico) was quickly added. The plate was read with luminometer (ex: Lmax 340) for 1 second using Femto or Pico Substrate. […] (FIG. 30).

[2] = molecular target: B3; assay: competitive binding assay: unlabeled human hepcidin against 0.25 nM biotinylated hepcidin for Ab2.7; standards in 5% BSA:I-block buffer
Description: as §1

[3] = molecular target: B1; assay: BIAcore: 1 nM antibody over immobilized rhHepc surface, no competitor (reference)
Description: (§2) Recombinant hepcidin was immobilized on a CM5 chip according to manufacturer's instructions at a flow rate 10 μL/min of running buffer (DPBS: Dulbecco's Phosphate Buffer Saline1X, GIBCO 14190, with 0.005% BIAcore surfactant P-20). The carboxylated matrix of the sensor chip was first activated with a 100 μL injection of 1:1 mixture of EDC (75 mg/mL N-ethyl-N-(dimethylamine-propyl)carbodiimide in water, from Biacore) and NHS (11.5 mg/mL N-hydroxysuccinimide in water, from Biacore). […] The excess reactive groups of the sensor chip were deactivated with an injection of 100 μL of ethanolamine (1.0M, from Biacore).
(§3) The binding signal obtained was proportional to the concentration of free antibody in solution at equilibrium.

[4] = molecular target: T1, recombinant cyno hepcidin (SEQ ID NO: 6) (cynomolgus monkey); assay: BIAcore solution equilibrium: fixed rcynoHepc + varied antibody, free rcynoHepc read on immobilized antibody surface
T1 construct: also called rcyno hepcidin; rcynoHepc
T1 peptide: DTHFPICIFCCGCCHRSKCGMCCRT
Description: The immobilization was performed at a flow rate 10 uL/min of running buffer (DPBS: Dulbecco's Phosphate Buffer Saline1, GIBCO 14190, with 0.005% BIAcore surfactant P-20) according to manufacturer's instructions. The carboxylated matrix of the sensor chip was first activated with a 100 ul injection of 1:1 mixture of EDC (75 mg/mL N-ethyl-N-(dimethylamine-propyl)carbodiimide in water, from BIAcore) and NHS (11.5 mg/mL N-hydroxysuccinimide in water, from BIAcore). 180 ul of antibodies (˜20 ug/ml in 10 mM Na-acetate pH4.0) was injected to immobilize onto the sensor chip at 30 uL/min. The excess reactive groups of the sensor chip were deactivated with an injection of 100 uL of ethanolamine (1.0M, from BIAcore).
The binding signal obtained is proportional to the free rcynoHepc in solution at equilibrium. The equilibrium dissociation constant (KD) was calculated from nonlinear regression analysis of the competition curves using a one-curve one-site homogeneous binding model (KinEx™ software, Sapidyne Instruments Inc., Boise Id.).

[5] = molecular target: B1; assay: BIAcore solution equilibrium: fixed antibody incubated with varied hepcidin, free antibody read on immobilized hepcidin chip
Description: (§4) Preparation of BIAcore chip surfaces: Immobilization of proteins to a BIAcore was performed according to manufacturer's instructions at a flow rate 10 μL/min of running buffer (DPBS: Dulbecco's Phosphate Buffer Saline1X, GIBCO 14190, with 0.005% Biacore surfactant P-20). The carboxylated matrix of the sensor chip was first activated with a 100 μL injection of 1:1 mixture of EDC (75 mg/mL N-ethyl-N-(dimethylamine-propyl)carbodiimide in water, from BIAcore) and NHS (11.5 mg/mL N-hydroxysuccinimide in water, from Biacore). […] The excess reactive groups of the sensor chip were deactivated with an injection of 100 μL of ethanolamine (1.0M, from Biacore).
(§5) Equilibrium binding analysis of antibody/hepcidin interactions on immobilized hepcidin surface: Fixed concentrations of antibody were incubated with various concentrations of hepcidin at room temperature for several hours before run through the immobilized hepcidin surface. After each sample injection, the surfaces were regenerated by injecting 30 μL […] glycine, pH1.5. The binding signal obtained is proportional to the free antibody in solution at equilibrium. The equilibrium dissociation constant (KD) was calculated from nonlinear regression analysis of the competition curves using a one or dual-curve one-site homogeneous binding model (KinExA™ software, Sapidyne Instruments Inc., Boise Id.).

[6] = molecular target: T2, recombinant mouse hepcidin (SEQ ID NO: 80) (mouse, not fully specified); assay: as above
T2 construct: also called murine hepcidin
T2 peptide: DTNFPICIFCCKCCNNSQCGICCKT
Description: as §4, §5

[7] = molecular target: B1; assay: BIAcore: 1 nM antibody preincubated with 10 nM of this hepcidin form in solution, then run over immobilized rhHepc surface; % = free antibody still binding the surface (low % = strong binding to the solution form)
Description: as §2, §3

[8] = molecular target: T3, hepcidin 20 (SEQ ID NO: 96) (human); assay: as above
T3 construct: also called Hepc20; hepc20
T3 peptide: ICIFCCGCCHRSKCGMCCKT
Description: as §2, §3

[9] = molecular target: T1, recombinant cyno hepcidin (SEQ ID NO: 6); assay: KinExA solution equilibrium: fixed antibody + varied rcyno hepcidin, free antibody captured on rcyno hepcidin-coated beads
From the text: Reacti-Gel 6× beads (Pierce, Rockford, Ill.) were pre-coated with rcyno hepcidin (SEQ ID NO: 6) and blocked with BSA according to manufacturer's instructions. […] The amount of the bead-bound antibody was quantified by fluorescently (Cy5)-labeled goat anti-murine-IgG (H+L) antibody (Jackson Immuno Research, West Grove, Pa.). The binding signal is proportional to the concentration of free antibody at equilibrium. Dissociation equilibrium constant (KD) was obtained from nonlinear regression of the competition curves using a dual-curve one-site homogeneous binding model (KinExA™ Pro software).

[10] = molecular target: T4, recombinant human prohepcidin (SEQ ID NO: 102) (human); assay: sandwich immunoassay: Ab2.7 capture, biotinylated rabbit anti-prohepcidin polyclonal detection; the prohepcidin concentration is varied (buffer curves)
T4 chain: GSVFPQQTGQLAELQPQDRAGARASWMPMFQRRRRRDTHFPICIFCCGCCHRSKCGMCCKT
Description: In order to reliably assess prohepcidin concentrations, a prohepcidin standard was measured after incubation for 60 minutes at 25° C. in a range of different buffers or sera.

[11] = molecular target: T3, hepcidin 20 (SEQ ID NO: 96); assay: BIAcore solution competition: 1 nM antibody preincubated with 10 nM antigen, then immobilized hepcidin surface; '-' = no inhibition by the solution form
Description: as §2, §3

B1
IC50 (read off the curve) [1]: ~7 ng/mL
IC50 (read off the curve) [2]: ~7 ng/mL

B2
Binding to Hepcidin Surface (%) [3]: 100%
Kd [4]: ~10 nM
Kd [5]: 21 nM
Kd [6]: 20 nM
Binding to Hepcidin Surface (%) [7]: 79%
Binding to Hepcidin Surface (%) [8]: 88%

B3
Binding to Hepcidin Surface (%) [3]: 100%
Kd [9]: ~0.016 nM
Kd [5]: 0.11 nM
Kd [6]: 40 nM
EC50 (read off the curve) [10]: ~10 ng/mL
Binding to Hepcidin Surface (%) [7]: 2%
Binding to Hepcidin Surface (%) [8]: 3%

B4
Binding to Hepcidin Surface (%) [3]: 100%
Kd [4]: ~0.1 nM
Kd [5]: 0.56 nM
Kd [6]: 14 nM
binding result [11]: no binding (tested: 10 nM)
Binding to Hepcidin Surface (%) [7]: 11%
Binding to Hepcidin Surface (%) [8]: 100%

B5
Binding to Hepcidin Surface (%) [3]: 100%
Kd [9]: ~0.009 nM
Kd [5]: 0.05 nM
Kd [6]: 30 nM
Binding to Hepcidin Surface (%) [7]: 0%
Binding to Hepcidin Surface (%) [8]: 1%
